Laboratory results published in paper PMC7784689, “Structural mechanism of phospholipids translocation by MlaFEDB complex” (Cell Research, 2020).

B2: MlaE (natural protein, E. coli K-12, UniProt P64606 1-260, looked up)
chain: MLLNALASLGHKGIKTLRTFGRAGLMLFNALVGKPEFRKHAPLLVRQLYNVGVLSMLIIVVSGVFIGMVLGLQGYLVLTTYSAETSLGMLVALSLLRELGPVVAALLFAGRAGSALTAEIGLMRATEQLSSMEMMAVDPLRRVISPRFWAGVISLPLLTVIFVAVGIWGGSLVGVSWKGIDSGFFWSAMQNAVDWRMDLVNCLIKSVVFAITVTWISLFNGYDAIPTSAGISRATTRTVVHSSLAVLGLDFVLTALMFGN
notes: MlaE, the transmembrane (permease) subunit of the MlaFEDB ABC transporter, E. coli K-12; expressed from the full mlaFEDCB operon amplified from genomic DNA; Homodimer within the 2:2:6:2 MlaFEDB complex; also called TMD protein MlaE

Assays:
MlaE = biological target: B2; experiment: cryo-EM structure; nucleotide-free MlaFEDB in POPG nanodisc (MSP1D1), 4 mg/mL, 25 mM Tris pH 7.8, 150 mM NaCl; 2.9 Å; conditions: both partners purified
[1] = biological target: the molecule itself; experiment: as above
[2] = biological target: the molecule itself; experiment: cryo-EM structure; MlaFEQEDB (MlaF E170Q) in nanodisc, incubated with 2 mM ATP and 2 mM MgCl2 for 30 min at room temperature; two conformations, EQ_tall (4.3 Å) and EQ_close (3.7 Å)

B1: MlaD (natural protein, E. coli K-12, UniProt P64604 1-183, looked up)
chain: MQTKKNEIWVGIFLLAALLAALFVCLKAANVTSIRTEPTYTLYATFDNIGGLKARSPVSIGGVVVGRVADITLDPKTYLPRVTLEIEQRYNHIPDTSSLSIRTSGLLGEQYLALNVGFEDPELGTAILKDGDTIQDTKSAMVLEDLIGQFLYGSKGDDNKNSGDAPAAAPGNNETTEPVGTTK
notes: expressed from the full mlaFEDCB operon amplified from genomic DNA; Homo-hexamer within the 2:2:6:2 MlaFEDB complex
With B1 the “stoichiometry N” value (MlaE) was 3.

For B2, the “stoichiometry N” value [1] was 2.

B3: MlaF (natural protein, E. coli K-12, UniProt P63386 1-269, looked up)
chain: MEQSVANLVDMRDVSFTRGNRCIFDNISLTVPRGKITAIMGPSGIGKTTLLRLIGGQIAPDHGEILFDGENIPAMSRSRLYTVRKRMSMLFQSGALFTDMNVFDNVAYPLREHTQLPAPLLHSTVMMKLEAVGLRGAAKLMPSELSGGMARRAALARAIALEPDLIMFDEPFVGQDPITMGVLVKLISELNSALGVTCVVVSHDVPEVLSIADHAWILADKKIVAHGSAQALQANPDPRVRQFLDGIADGPVPFRYPAGDYHADLLPGS
notes: expressed from the full mlaFEDCB operon amplified from genomic DNA; Homodimer within the 2:2:6:2 MlaFEDB complex; also called NBD protein MlaF
In the case of B3, the “stoichiometry N” value [1] is reported as 2.

B4: MlaF E170Q (natural protein, E. coli K-12, UniProt P63386 1-269, looked up)
chain: MEQSVANLVDMRDVSFTRGNRCIFDNISLTVPRGKITAIMGPSGIGKTTLLRLIGGQIAPDHGEILFDGENIPAMSRSRLYTVRKRMSMLFQSGALFTDMNVFDNVAYPLREHTQLPAPLLHSTVMMKLEAVGLRGAAKLMPSELSGGMARRAALARAIALEPDLIMFDQPFVGQDPITMGVLVKLISELNSALGVTCVVVSHDVPEVLSIADHAWILADKKIVAHGSAQALQANPDPRVRQFLDGIADGPVPFRYPAGDYHADLLPGS
notes: MlaF, E. coli K-12, with the catalytic glutamate of Walker B changed to glutamine; expressed from the full mlaFEDCB operon; PDB 7CGE holds the wild-type parent; also called MlaFEQ; EQ mutant; source: E. coli C43(DE3), co-expressed from mutated pET20b-mlaFEDCB, purified as MlaFEQEDB, in nanodisc
With B4 the “stoichiometry N” value [2] was 2.
